Results published in US20110243948A1 (LEXICON PHARMACEUTICALS, published 2011).
“And” between values parts separate entries of the source, which are not always exact repeats. Identical values can stand only once.

T1: SP1 peptide (synthetic peptide with the sequence of the SP1 region of ANGPTL3) (mouse and human (the sequence is the …))
T1 construct: also called ANGPTL3 SP1; hANGPTL3 SP1 peptide
T1 peptide: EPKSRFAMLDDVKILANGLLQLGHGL

T2: mouse ANGPTL3 (mouse, UniProt Q9R182 17-455, limits assumed)
T2 sequence: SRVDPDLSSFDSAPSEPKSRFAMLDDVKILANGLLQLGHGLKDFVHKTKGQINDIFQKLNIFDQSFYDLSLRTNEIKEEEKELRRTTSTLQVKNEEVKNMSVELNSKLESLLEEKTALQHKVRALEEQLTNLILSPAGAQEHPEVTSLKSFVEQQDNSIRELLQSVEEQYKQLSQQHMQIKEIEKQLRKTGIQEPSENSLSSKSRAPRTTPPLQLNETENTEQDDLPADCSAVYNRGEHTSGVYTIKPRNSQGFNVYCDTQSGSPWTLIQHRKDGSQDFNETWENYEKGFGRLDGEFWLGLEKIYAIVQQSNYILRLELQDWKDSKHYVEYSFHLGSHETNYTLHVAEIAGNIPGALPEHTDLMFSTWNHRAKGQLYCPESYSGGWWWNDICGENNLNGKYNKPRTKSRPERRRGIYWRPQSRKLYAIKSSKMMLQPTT

T3: hANGPTL3T (full-length HIS-tagged human ANGPTL3) (human, UniProt Q9Y5C1 17-460)
T3 construct: Human ANGPTL3 with a glycine and His6 at the C-terminus, purified from conditioned medium of infected CHO cells; also called full-length ANGPTL3T; human ANGPTL3T
T3 sequence: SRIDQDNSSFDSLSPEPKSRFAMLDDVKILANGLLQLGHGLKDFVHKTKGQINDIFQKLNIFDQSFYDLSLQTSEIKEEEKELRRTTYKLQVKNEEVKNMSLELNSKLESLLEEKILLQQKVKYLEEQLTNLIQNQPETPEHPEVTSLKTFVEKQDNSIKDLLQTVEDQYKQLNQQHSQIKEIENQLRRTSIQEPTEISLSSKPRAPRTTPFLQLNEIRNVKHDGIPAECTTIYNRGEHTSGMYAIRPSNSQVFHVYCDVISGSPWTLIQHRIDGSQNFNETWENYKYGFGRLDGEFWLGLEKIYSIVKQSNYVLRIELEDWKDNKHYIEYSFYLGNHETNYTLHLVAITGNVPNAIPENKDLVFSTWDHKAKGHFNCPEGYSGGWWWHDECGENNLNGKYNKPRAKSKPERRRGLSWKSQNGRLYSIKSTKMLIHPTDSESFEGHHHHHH

T4: N'-hANGPTL3T (human, UniProt Q9Y5C1 20-243)
T4 construct: also called rN'-hANGPTL3T
T4 sequence: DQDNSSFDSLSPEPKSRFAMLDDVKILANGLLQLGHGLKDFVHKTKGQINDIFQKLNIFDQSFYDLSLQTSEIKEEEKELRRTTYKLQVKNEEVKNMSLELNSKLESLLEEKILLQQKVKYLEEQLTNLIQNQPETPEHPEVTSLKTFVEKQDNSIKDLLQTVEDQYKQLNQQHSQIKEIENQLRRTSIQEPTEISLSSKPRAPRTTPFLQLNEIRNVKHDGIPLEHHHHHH


Key:
[1] = target: T1, SP1 peptide (synthetic peptide with the …); test: SPR (BIACORE 3000), antibody captured on anti-mouse IgG Fc chip, SP1 peptide injected, 1:1 model
Description: (§1) The BIACORE® 3000 is a real-time biomolecular analysis system for detecting and quantifying protein-protein interactions using surface plasmon resonance technology. The following affinity constants were determined according to the manufacturer's instructions for the BIACORE® 3000 system: equilibrium dissociation constant (KD), association rate constant (kₒₙ), and dissociation rate constant (koff).
The BIACORE CM5 chip surface was coated with an anti-mouse IgG Fc by coupling 90 μg/ml of ImmunoPure Goat Anti-Mouse IgG Fc (Product No.: 31170, Pierce, Rockford, Ill. 61105) to the chip surface using an Amine Coupling Kit (Product No.: BR-1000-50, GE Healthcare, Uppsala Sweden). The antibody was then captured on the anti-mouse IgG Fc BIACORE chip surface by injecting the antibody at a flow rate of 10 μl/min for 30 sec. The association and dissociation phases, which are used to determine kₒₙ and koff constants, were generated by first injecting the SP1 peptide into the BIACORE® 3000 system having an antibody-coated chip surface for 2 minutes at a flow rate of 30 μl/min. […] The injection phase was used to determine the association rate constant, or kₒₙ. Following each injection, the SP1 peptide was dissociated from the antibody by flowing BIACORE HBS-EP buffer (Product No.: BR-1001-88, GE Healthcare, Uppsala Sweden) for 5 minutes over the peptide-antibody complex on the BIACORE CM5 chip surface. This dissociation phase was used to determine the dissociation rate constant, or koff. Prior to the next injection, the BIACORE chip surface was regenerated by injecting 10 mM HCl at a flow rate of 100 μl/min for 30 seconds.

mouse ANGPTL3 = target: T2, mouse ANGPTL3; test: cell-based or functional assay
[2] = target: T3, hANGPTL3T (full-length HIS-tagged human …); test: SPR (BIACORE 3000), antigen amine-coupled to CM5 chip, Fab injected, 1:1 model
Description: as §1
(§2) Affinity constants of the 4.7.1, 4.8.3, and 4.9.1 antibodies for N′-hANGPTL3T and hANGPTL3T protein antigens were each determined as follows. The BIACORE CM5 chip surface was coated with a protein antigen by coupling either 10 μg/ml of N′-hANGPTL3T or 20 μg/ml of hANGPTL3T to the chip surface using an Amine Coupling Kit (Product No.: BR-1000-50, GE Healthcare, Uppsala Sweden). The association and dissociation phases, which are used to determine the kₒₙ and koff constants, were generated by first injecting a Fab fragment of the antibody (generated using a Fab Preparation Kit (Product No.: 44885, Pierce, Rockford, Ill. 61105) according to the manufacturer's instructions) into the BIACORE® 3000 system having a coated chip surface for 2 minutes at a flow rate of 30 μl/min. […] The injection phase was used to determine the association rate constant, or kₒₙ. Following each injection, the Fab fragment was dissociated from the protein antigen by flowing BIACORE HBS-EP buffer (Product No.: BR-1001-88, GE Healthcare, Uppsala Sweden) for 5 minutes over the antigen-Fab complex on the BIACORE CM5 chip surface. This dissociation phase was used to determine the dissociation rate constant, or koff. Prior to the next injection, the BIACORE chip surface was regenerated by injecting 10 mM HCl at a flow rate of 100 μl/min for 30 seconds.

N'-hANGPTL3T = target: T4, N'-hANGPTL3T; test: as above
Description: as §1, §2

[3] = target: T1, SP1 peptide (synthetic peptide with the …); test: antibody capture ELISA (FIG. 9)
[4] = target: T3, hANGPTL3T (full-length HIS-tagged human …); test: ELISA (data not shown)

| Binder | Kd [1] [nM] | koff [1] [s⁻¹] | kon [1] [M⁻¹ s⁻¹] | rescue of LPL activity (percentage increase in LPL activity in the presence of both ANGPTL3 and anti-ANGPTL3 antibody relative to ANGPTL3 alone) (mouse ANGPTL3) [%] | Kd [2] | koff [2] | kon [2] | Kd (N'-hANGPTL3T) | koff (N'-hANGPTL3T) | kon (N'-hANGPTL3T) | binding result [3] | binding result [4] |
| --- | --- | --- | --- | --- | --- | --- | --- | --- | --- | --- | --- | --- |
| antibody 4.7.1 (antibody, IgG2b, V domains shown, Biotinylated in the alanine-scanning ELISA) VH: EVQLQQSGPELVKPGASVKMSCKASGYTFTSYVMHWVKQKPGQGLEWIGYFNPYNDGTKYNEKFKGKATLTSDKSSSTAYMELSSLTSEDSAVYYCAREGDYYGYFDYWGQGTTLTVSS VL: DIQMTQTTSSLSASLGDRVTISCRASQDISNFLNWYQQKPDGTVKLLIYYTSRLHSGVPSRFSGSGSGTDYSLTISNLEQEDIATYFCQQGNTLPPTFGGGTKLEIKR | 26.1 | 0.00546 | 209000 | > 50 |  |  |  |  |  |  |  |  |
| Fab fragment of antibody 4.7.1 (Fab, V domains shown) VH: EVQLQQSGPELVKPGASVKMSCKASGYTFTSYVMHWVKQKPGQGLEWIGYFNPYNDGTKYNEKFKGKATLTSDKSSSTAYMELSSLTSEDSAVYYCAREGDYYGYFDYWGQGTTLTVSS VL: DIQMTQTTSSLSASLGDRVTISCRASQDISNFLNWYQQKPDGTVKLLIYYTSRLHSGVPSRFSGSGSGTDYSLTISNLEQEDIATYFCQQGNTLPPTFGGGTKLEIKR |  |  |  |  | 45.3 nM and 117 nM | 0.00796 s⁻¹ and 0.00953 s⁻¹ | 176000 M⁻¹ s⁻¹ and 81200 M⁻¹ s⁻¹ | 49.5 nM and 77.5 nM | 0.00915 s⁻¹ and 0.00899 s⁻¹ | 185000 M⁻¹ s⁻¹ and 116000 M⁻¹ s⁻¹ |  |  |
| Fab fragment of antibody 4.8.3 (Fab, V domains shown) VH: EVQLQQSGPELVKPGASVKMSCKASGYTFISCVMHWVKQKPGQGLEWIGYINPYNDGTKYNEKFKGKATLTSDKSSSTAYMELSSLTSEDSAVYYCAREGDYYGYFDYWGQGTTLTVSS VL: EIQMTQTTSSLSASLGDRVTISCWASQDINNYLNWYQQKPDGTVKLLIYYTSRLHSGVPSRFSGSGSGTDYSLTISNLKQEDIATYFCQQGNTLPPTFGGGTKLEIKR |  |  |  |  | 970 nM and 450 nM | 0.0216 s⁻¹ and 0.0273 s⁻¹ | 22300 M⁻¹ s⁻¹ and 60000 M⁻¹ s⁻¹ | 210 nM and 251 nM | 0.019 s⁻¹ and 0.0275 s⁻¹ | 90000 M⁻¹ s⁻¹ and 109000 M⁻¹ s⁻¹ |  |  |
| antibody 4.8.3 (antibody, IgG2a, V domains shown, Biotinylated in the alanine-scanning ELISA) VH: EVQLQQSGPELVKPGASVKMSCKASGYTFISCVMHWVKQKPGQGLEWIGYINPYNDGTKYNEKFKGKATLTSDKSSSTAYMELSSLTSEDSAVYYCAREGDYYGYFDYWGQGTTLTVSS VL: EIQMTQTTSSLSASLGDRVTISCWASQDINNYLNWYQQKPDGTVKLLIYYTSRLHSGVPSRFSGSGSGTDYSLTISNLKQEDIATYFCQQGNTLPPTFGGGTKLEIKR |  |  |  | > 50 |  |  |  |  |  |  | binds |  |
| antibody 4.9.1 (antibody, IgG1, V domains shown, Biotinylated in the alanine-scanning ELISA) VH: EVQLQQSGPELVKPGASVKMSCKASGYTFTSYVMHWVKQKPGQGLEWIGYINPYNDGTKYNENFKGKATLTSDKSSSTAYMEFSSLTSEDSAVYYCAREGDYYGYFDYWGQGTTLTVSS VL: DIQMTQTTSSLSASLGDRVTISCRASQDIRNYLNWYQQKPDGTVKLLIYYTSRLHSGVPSRFSGSGSGTDYSLTISNLEQEDIATYFCQQGNTLPPTFGGGTKLEIKR | 46.1 | 0.00778 | 169000 | > 50 |  |  |  |  |  |  |  |  |
| Fab fragment of antibody 4.9.1 (Fab, V domains shown) VH: EVQLQQSGPELVKPGASVKMSCKASGYTFTSYVMHWVKQKPGQGLEWIGYINPYNDGTKYNENFKGKATLTSDKSSSTAYMEFSSLTSEDSAVYYCAREGDYYGYFDYWGQGTTLTVSS VL: DIQMTQTTSSLSASLGDRVTISCRASQDIRNYLNWYQQKPDGTVKLLIYYTSRLHSGVPSRFSGSGSGTDYSLTISNLEQEDIATYFCQQGNTLPPTFGGGTKLEIKR |  |  |  |  | 48.1 nM and 45.2 nM | 0.00622 s⁻¹ and 0.00777 s⁻¹ | 129000 M⁻¹ s⁻¹ and 172000 M⁻¹ s⁻¹ | 45.4 nM and 55 nM | 0.00593 s⁻¹ and 0.00734 s⁻¹ | 131000 M⁻¹ s⁻¹ and 133000 M⁻¹ s⁻¹ |  |  |
| antibody 5.50 (antibody, IgG2b, V domains shown, Biotinylated in the alanine-scanning ELISA) VH: EVQLQQSGPELVKPGASVKISCKASGFTFTDYYMNWVKQSHGESLEWIGDINPNNGGTIYNQKFRGKATLTVDKSSSTAYMELRSLTSEDSAVYYCVRLPWYFDVWGTGTTVTVSS VL: DVLMTQTPLSLPVSLGDQASISCRSSQSILHSNGNTYLEWFLQKPGQSPKLLIYKVSNRFSGVPDRFSGSGSGTDFTLKISRVEAEDLGVYYCFQGSHVPYTFGGGTKLEIKR | 1.78 | 0.00193 | 1.08e+06 |  |  |  |  |  |  |  |  | binds |
| antibody 5.35 (antibody, IgG2a, V domains shown, Biotinylated in the alanine-scanning ELISA) VH: QVTLKESGPGILHPSQTLTLTCSFSGFSLNTFGLAVGWIRQPSGKGLEWLGHIWWDDHKYYNGVLKSRLTISKDSSKKQVFLRIANVDTADTARYYCARLETGTGFAYWGQGTLVTVSA VL: DIVLTQSTPSVPVTPGESVSISCRSSKSLLDSNGITYLYWFLQRPGQSPQLLIYRMSKLASGVPDRFSGSGSETAFTLRISRVEAEDVGVYYCMQPLEYPFTFGAGTKLELNG | 1.8 | 0.0015 | 835000 |  |  |  |  |  |  |  |  | binds |
